Reference: IntAct's records for PubMed 26040720

B1: Reticulophagy regulator 1 (Homo sapiens), Q9H6L5-1 (parent)
chain: MASPAPPEHAEEGCPAPAAEEQAPPSPPPPQASPAERQQQEEEAQEAGAAEGAGLQVEEAAGRAAAAVTWLLGEPVLWLGCRADELLSWKRPLRSLLGFVAANLLFWFLALTPWRVYHLISVMILGRVIMQIIKDMVLSRTRGAQLWRSLSESWEVINSKPDERPRLSHCIAESWMNFSIFLQEMSLFKQQSPGKFCLLVCSVCTFFTILGSYIPGVILSYLLLLCAFLCPLFKCNDIGQKIYSKIKSVLLKLDFGIGEYINQKKRERSEADKEKSHKDDSELDFSALCPKISLTVAAKELSVSDTDVSEVSWTDNGTFNLSEGYTPQTDTSDDLDRPSEEVFSRDLSDFPSLENGMGTNDEDELSLGLPTELKRKKEQLDSGHRPSKETQSAAGLTLPLNSDQTFHLMSNLAGDVITAAVTAAIKDQLEGVQQALSQAAPIPEEDTDTEEGDDFELLDQSELDQIESELGLTQDQEAEAQQNKKSSGFLSNLLGGH

Variants of: B1
Conditions: with MAP1LC3A

**Q.** Which “effect of a mutation on the interaction” value does the source give for MASPAPPEHAEEGCPAPAAEEQAPPSPPPPQASPAERQQQEEEAQEAGAAEGAGLQVEEAAGRAAAAVTWLLGEPVLWLGCRADELLSWKRPLRSLLGFVAANLLFWFLALTPWRVYHLISVMILGRVIMQIIKDMVLSRTRGAQLWRSLSESWEVINSKPDERPRLSHCIAESWMNFSIFLQEMSLFKQQSPGKFCLLVCSVCTFFTILGSYIPGVILSYLLLLCAFLCPLFKCNDIGQKIYSKIKSVLLKLDFGIGEYINQKKRERSEADKEKSHKDDSELDFSALCPKISLTVAAKELSVSDTDVSEVSWTDNGTFNLSEGYTPQTDTSDDLDRPSEEVFSRDLSDFPSLENGMGTNDEDELSLGLPTELKRKKEQLDSGHRPSKETQSAAGLTLPLNSDQTFHLMSNLAGDVITAAVTAAIKDQLEGVQQALSQAAPIPEEDTDTEEGAAAAAADQSELDQIESELGLTQDQEAEAQQNKKSSGFLSNLLGGH [D453A;D454A;F455A;E456A;L457A;L458A] here?
**A.** disrupting interaction strength
